The target of experiment [1] is recombinant human PlGF-1 (comprising amino acids 1-131) expressed in E. coli (R&D Systems) (human) (UniProt P49763). Briefly: EIA of clone supernatants, antibody captured on anti-mouse IgG Fc, biotin labeled human PlGF-1.
For experiment [2] the target is unchanged. Briefly: EIA of 24 well cultures, antibody captured on anti-mouse IgG Fc, biotin labeled human PlGF-1.
For experiment [3] the target is unchanged. In words: EIA, supernatant antibody captured on anti-mouse IgG Fc, biotin labeled human PlGF-1 at 1500 pg/mL.
Experiment [4] concerns the target T1, human PlGF-1 (as used in Example 13; source not specified) (human) (UniProt P49763).
T1 sequence: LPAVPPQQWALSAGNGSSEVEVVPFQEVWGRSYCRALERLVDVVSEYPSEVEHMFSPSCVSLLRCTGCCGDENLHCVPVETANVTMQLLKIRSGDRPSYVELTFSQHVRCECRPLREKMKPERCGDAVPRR
Briefly: … PlGF-1 assay after 16 h incubation of PlGF-1 with sFlt-1 (data not shown).

Experiment [5] deals with T1, human PlGF-1 (as used in Example 13; source not specified) (human). In words: … PlGF-1 assay; added sFlt-1 1,181 pM; 13.3 pM PlGF-1 without sFlt-1.
The target is the same in experiment [6]. Briefly: … PlGF-1 assay; added sFlt-1 186 pM; 40.5 pM PlGF-1 without sFlt-1.
Experiment [7] has the same target. Briefly: … PlGF-1 assay; added sFlt-1 788 pM; 40.5 pM PlGF-1 without sFlt-1.
Experiment [8] has the same target. Briefly: … PlGF-1 assay; added sFlt-1 186 pM; 6.8 pM PlGF-1 without sFlt-1.
Experiment [9] shares this target. Briefly: … PlGF-1 assay; added sFlt-1 389 pM; 6.8 pM PlGF-1 without sFlt-1.
Experiment [10] has the same target. In words: … PlGF-1 assay; added sFlt-1 389 pM; 13.3 pM PlGF-1 without sFlt-1.
Experiment [11] shares this target. In words: … PlGF-1 assay; added sFlt-1 93 pM; 13.3 pM PlGF-1 without sFlt-1.
For experiment [12] the target is unchanged. In words: … PlGF-1 assay; added sFlt-1 1,181 pM; 27.1 pM PlGF-1 without sFlt-1.
The target is the same in experiment [13]. In words: … PlGF-1 assay; added sFlt-1 93 pM; 3.6 pM PlGF-1 without sFlt-1.
Experiment [14] has the same target. Briefly: … PlGF-1 assay; added sFlt-1 93 pM; 27.1 pM PlGF-1 without sFlt-1.
The target is the same in experiment [15]. Briefly: … PlGF-1 assay; added sFlt-1 186 pM; 13.3 pM PlGF-1 without sFlt-1.
The target is the same in experiment [16]. Briefly: … PlGF-1 assay; added sFlt-1 186 pM; 27.1 pM PlGF-1 without sFlt-1.
The target is the same in experiment [17]. In words: … PlGF-1 assay; added sFlt-1 186 pM; 3.6 pM PlGF-1 without sFlt-1.
Experiment [18] has the same target. In words: … PlGF-1 assay; added sFlt-1 389 pM; 27.1 pM PlGF-1 without sFlt-1.
The target is the same in experiment [19]. Briefly: … PlGF-1 assay; added sFlt-1 93 pM; 6.8 pM PlGF-1 without sFlt-1.
For experiment [20] the target is unchanged. Briefly: … PlGF-1 assay; added sFlt-1 788 pM; 13.3 pM PlGF-1 without sFlt-1.
The target is the same in experiment [21]. Briefly: … PlGF-1 assay; added sFlt-1 389 pM; 3.6 pM PlGF-1 without sFlt-1.
Experiment [22] has the same target. In words: … PlGF-1 assay; added sFlt-1 788 pM; 27.1 pM PlGF-1 without sFlt-1.
Experiment [23] shares this target. Briefly: … PlGF-1 assay; added sFlt-1 1,181 pM; 3.6 pM PlGF-1 without sFlt-1.
The target is the same in experiment [24]. Briefly: … PlGF-1 assay; added sFlt-1 1,181 pM; 6.8 pM PlGF-1 without sFlt-1.
Experiment [25] has the same target. Briefly: … PlGF-1 assay; added sFlt-1 788 pM; 6.8 pM PlGF-1 without sFlt-1.
The target is the same in experiment [26]. In words: … PlGF-1 assay; added sFlt-1 389 pM; 40.5 pM PlGF-1 without sFlt-1.
Experiment [27] shares this target. Briefly: … PlGF-1 assay; added sFlt-1 788 pM; 3.6 pM PlGF-1 without sFlt-1.
Experiment [28] has the same target. Briefly: … PlGF-1 assay; added sFlt-1 1,181 pM; 40.5 pM PlGF-1 without sFlt-1.
Experiment [29] shares this target. Briefly: … PlGF-1 assay; added sFlt-1 93 pM; 40.5 pM PlGF-1 without sFlt-1.
Experiment [30] shares this target. In words: … PlGF-1 assay after 16 h incubation of PlGF-1 with sFlt-1 up to 12 nM (data not shown).

Results on three molecules are retold here after patent US20100015637A1 (AbbVie / Abbott, published 2010).

B1: anti-human PlGF-1 monoclonal antibody from clone 1-255-189 (antibody, V domains shown)
VH: QVHLQQSGAELMKPGASVKISCKATGYTFSSYWIEWVKQRPGHGLEWIGEILPGSVSNNFNEKFKDKATLTADPSSNTAYIQVSSLTSEDSAVYYCARSTGFYYGGNYFDHWGQGTTLAVSS
VL: DVVMTQTPLSLPVSPGDQASISCRSSQSLVHSNGHTYLHWYLQKPGQSPKLLIYKVSNRFSGVPDRVSGSGSGTDFTLKISRVEAEDLGVYFCSQSTHVPPTFGGGTKLEIKR
Regarding B1, the EIA signal relative to background (fold over background) in [1] is above 3; in [2] it was above 3; in [3] it was 3.

B2: anti-human PlGF-1 monoclonal antibody from clone 2-826-127 (antibody, V domains shown)
VH: QVQLKQSGPGLVQPSQSLSITCTVSGFSLTTYGIHWVRQSPGKGLEWLGVMWSGGDTDYDAAFISRLSISKDNSKSQVFFKMNSLQANDTGIYYCARYRFYGMDYWGQGTSVTVSS
VL: AIQMTQSSSSFSVSLGDRVTITCKASEDIYNRFAWYQQKPGNAPRLLISGAASLEAGVPSRFSGSGSGQDYTLSITSLQTEDVATYYCQQYWSTPWTFGGGTKLEIKR
For B2, the EIA signal relative to background (fold over background) in experiment [1], in [2] and in experiment [3] was above 3 in each case.

B3: sFlt-1 (as used in Example 13; preparation not specified) (receptor, not shown: a dimerising Fc or GST; small tags and cut ends)
chain: SKLKDPELSLKGTQHIMQAGQTLHLQCRGEAAHKWSLPEMVSKESERLSITKSACGRNGKQFCSTLTLNTAQANHTGFYSCKYLAVPTSKKKETESAIYIFISDTGRPFVEMYSEIPEIIHMTEGRELVIPCRVTSPNITVTLKKFPLDTLIPDGKRIIWDSRKGFIISNATYKEIGLLTCEATVNGHLYKTNYLTHRQTNTIIDVQISTPRPVKLLRGHTLVLNCTATTPLNTRVQMTWSYPDEKNKRASVRRRIDQSNSHANIFYSVLTIDKMQNKDKGLYTCRVRSGPSFKSVNTSVHI
modifications: glycosylated; the chimera is dimerised through its Fc, if that preparation was the one used
In experiment [4], B3 returned a molar excess of sFlt-1 for 90% maximum inhibition of 40 fold. Further, the Measured Human PlGF-1 in experiment [5] came out at 3 pM; in [6], 17.8 pM; in experiment [7], 9.2 pM; in [8] it was 2.4 pM; in [9], 2 pM; in [10], 3.8 pM. Further, the Measured Human PlGF-1 in [11] came out at 6.7 pM; in [12], 5.4 pM; in [13], 1.5 pM; in [14], 15.6 pM; in experiment [15], 4.9 pM; in experiment [16] it was 10.6 pM. For the same molecule, the Measured Human PlGF-1 in [17] was 1.2 pM; in experiment [18] it was 7.5 pM; in [19] it was 3.1 pM; in experiment [20] it was 3.3 pM; in experiment [21], 1.2 pM; in experiment [22], 6.1 pM. Moreover, the Measured Human PlGF-1 in [23] was 1.3 pM; in experiment [24], 1.9 pM; in experiment [25] it was 1.9 pM; in [26] it was 12.2 pM; in experiment [27], 1.2 pM; in experiment [28], 7.8 pM. This molecule also returned a Measured Human PlGF-1 in experiment [29] of 25.9 pM. The percent change in measured PlGF-1 in [5] was -77%; in [6] it was -56%; in experiment [9], -70%; in experiment [11], -49%; in [12] it was -80%; in experiment [15] it was -63%. For the same molecule, the figures for the percent change in measured PlGF-1 in experiment [17], in experiment [25] and in experiment [29] were -65%, -72% and -36%, respectively. Also, the results for the percent change in measured PlGF-1 vs. without sFlt-1 in [7], in experiment [22] and in [24] were -77%, -78% and -72%, respectively. Also, the percent change in measured PlGF-1 vs. no sFlt-1 is -65% in experiment [8]; -72% in [10]; -58% in [13]; -61% in experiment [16]; -72% in [18]; -76% in experiment [20]. Besides, in experiment [26], the percent change in measured PlGF-1 vs. no sFlt-1 was -70%. Besides, the percent change in measured PlGF-1 versus no sFlt-1 was -42% in experiment [14], -66% in experiment [27] and -81% in experiment [28]. For the same molecule, the percentage of inhibition in [19] is -55%. For the same molecule, the percent change in measured PlGF-1 versus without sFlt-1 in experiment [21] is -67%; in experiment [23], -64%. The % inhibition of the human PlGF-1 assay in [30] was found to be 90%.
